Test results: patent US20220033519A1 (NATIONAL RESEARCH COUNCIL OF CANADA, published 2022)

T1: soluble and secreted FUT8 (sFUT8) enzyme (aa 87-575; UniProtKB #Q9BYC5) with C-terminal polyhistidine tag (UniProt Q9BYC5 87-575)
T1 sequence: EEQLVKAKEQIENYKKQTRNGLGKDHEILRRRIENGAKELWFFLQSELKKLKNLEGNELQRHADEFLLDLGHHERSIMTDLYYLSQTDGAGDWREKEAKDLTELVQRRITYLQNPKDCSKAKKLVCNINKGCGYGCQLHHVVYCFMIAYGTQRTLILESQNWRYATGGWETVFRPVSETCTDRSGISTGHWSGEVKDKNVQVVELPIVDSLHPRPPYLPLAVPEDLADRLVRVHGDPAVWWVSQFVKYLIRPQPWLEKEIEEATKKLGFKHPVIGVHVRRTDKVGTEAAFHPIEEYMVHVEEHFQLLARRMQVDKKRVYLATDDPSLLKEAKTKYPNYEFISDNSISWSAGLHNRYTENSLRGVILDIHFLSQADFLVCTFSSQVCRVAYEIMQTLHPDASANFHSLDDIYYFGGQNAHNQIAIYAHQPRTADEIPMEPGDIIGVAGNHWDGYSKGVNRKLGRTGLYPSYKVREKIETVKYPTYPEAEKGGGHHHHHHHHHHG

B1: anti-FUT8 monoclonal antibody 1D2 (hybridoma) (antibody, V domains shown)
VH: QVQLKESGPGLVAPSQSLSITCTVSGFSLTGYGVNWVRQPPGKGLEWLGMIWGDGSTDYNSALKSRLSISKDNSKSQVFLKMNSLQTDDTASYYCARDFYDGYLYAMDYWGQGTSVTVSSAS
VL: DIVMTQSQKFMSTSLGDRVSVTCKASQNVGSYVAWYQQKPGQSPKALIYSASYRYSGVPDRFAGSGSGTDFTLTISNVQSEDLAEYFCQQYYTYPYTFGGGTWSTRLASWAFRSL
B2: anti-FUT8 monoclonal antibody 1H9 (hybridoma) (antibody, V domains shown)
VH: EVQLQQSGPELVKPGASVKMSCKASGYIFTDYVMHWVKQSNGKSLEWIGYINPYNDYSNYNQKFKGKATLTVDKSSNTAYMQLNSLTSEDSAVYFCARSGDVWLAYWGQGTLVTISA
VL: DIVLTQSPASLAISLGQRATISCRASKSVSTSGYSYMHWYQQKPGQPPRLLIYLASNLESGVPARFSGSGSGTDFTLNIHPVEEEDGATYYCQHSRELPWTFGGGT
B3: anti-FUT8 monoclonal antibody 5C9 (hybridoma) (antibody, V domains shown)
VH: QVQLKESGPGLVAPSQSLSITCTVSGFSLTGYGVNWVRQPPGKGLEWLGTIWGDGSTDYNSALKSRLSISKDNSKTQVFLKMHSLQTDDTAIYYCARGGYDDYFGYAMDYWGQGTSVTVSS
VL: DIVMTQSQKFMSTVVGDRVSVTCKASQNVGTNVAWYQQKPGQSPKALIYSASYRYSGVPDRLTGSGSGTDFTLTFSYVQSEDLAEYFCQQYYTYPYTFGGGTKLEIK

The binders below were run against T1, soluble and secreted FUT8 (sFUT8) … (assay: cell-based or functional assay).

Going from B1 to B2, the “FUT8 enzymatic activity (% inhibition)” value falls from 82% to 60%.

B3 was tested, and the “FUT8 enzymatic activity (% inhibition)” value was 87%.
